Laboratory results taken from PMC4008586 (PLoS ONE, 2014).
Substitutions are numbered along the chain they refer to.

B1: hMcl-1(171–327), wild type (domain or fragment, human, UniProt Q07820 171-327, looked up)
chain: EDELYRQSLEIISRYLREQATGAKDTKPMGRSGATSRKALETLRRVGDGVQRNHETAFQGMLRKLDIKNEDDVKSLSRVMIHVFSDGVTNWGRIVTLISFGAFVAKHLKTINQESCIEPLAESITDVLVRTKRDWLVKQRGWDGFVEFFHVEDLEGG
notes: also called myeloid cell leukemia-1
B2: hMcl-1(171–327) Cys 286 → Ser (domain or fragment, human, UniProt Q07820 171-327, looked up)
chain: B1 chain with C116S
notes: seven nonnative residues LHHHHHH at the C-terminus; The NMR samples were uniformly 13C,15N-labeled (or U-15N, 5% 13C); also called mutant; mutant Cys 286 → Ser

Molecular target: Bim-BH3 peptide
Experiment: SPR; Biacore assay; who was immobilised and the conditions are not stated
Conditions: both partners purified

Row | Binder | Kd
1 | B1 | ~0.06 nM
2 | B2 | ~0.06 nM
